Source: patent US20250326826A1 (CENTRO DE INGENIER A GEN TICA Y BIOTECNOLOG A, published 2025)
Where two headings read alike, the source gives them in different places.

Tests used:
[1] = biological target: T1, GST-hVEGF121 (human, UniProt P15692-9 27-147); experiment: competition ELISA, coated GST-hVEGF, competitor Fc-VEGFR2
T1 construct: plate coating of the VEGF ELISAs; also called human VEGF; not shown: glutathione S-transferase (GST) fusion partner
T1 sequence (looked up): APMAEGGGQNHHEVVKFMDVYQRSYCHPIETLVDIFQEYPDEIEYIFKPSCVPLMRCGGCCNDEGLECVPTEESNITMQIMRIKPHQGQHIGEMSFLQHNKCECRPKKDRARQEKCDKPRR

[2] = biological target: T1, GST-hVEGF121; experiment: ELISA, coated GST-hVEGF
[3] = biological target: T2, Recombinant human bFGF (human, UniProt P09038 143-288, limits assumed); experiment: competition ELISA, coated bFGF, competitor Fc-FGFR1
T2 construct: Bought (Sigma); also called hFGF-2; human basic fibroblast growth factor

[4] = biological target: T2, Recombinant human bFGF; experiment: ELISA, coated human bFGF
[5] = biological target: T2, Recombinant human bFGF; experiment: ELISA, coated human bFGF; remark: listed apart in the source
Procedure: (§1) The 96-well plates were coated with 100 μL/well of a solution of GST-hVEGF121, GST-mVEGF120, or GST at a concentration of 20 μg/mL, or with a solution of VEGFKDR- at a concentration of 10 μg/mL, or hFGF-2 or mFGF-2 at a concentration of 5 μg/mL in 1×PBS for 16 hours at 4° C. After the plates were blocked with PBS-5% skim milk for one hour, 1:2 serial dilutions of the purified VHHs were added, starting at 2 μg/mL in PBS-0.5% skim milk. The plates were incubated for 1 hour at 37° C. and after several washes, the monoclonal antibody 9E10, specific for c-myc, was added. After one hour of incubation at 25° C. the plates were washed thoroughly. The binding of the fragment to the antigen in the solid phase was detected by the peroxidase activity using 100 μL/well of TMB. The reaction was stopped with 50 μL/well of stop solution, and absorbance values at 450 nm were determined in a microtiter plate reader.
SEQ ID NO: 18 and SEQ ID NO: 19, and the bivalent Nb-VV6 and Nb-FF2, with sequences identified as SEQ ID NO: 20 and SEQ ID NO: 21, were expressed and purified as described in the Example 1. In all cases, the purity and identity of the proteins were verified by SDS-PAGE 12% and anti-polyhistidine Western Blot. […] The experimental mass of the polypeptides and the arrangement of the disulfide bridges were checked by ESI/MS-MS. The experimental and theoretical mass, for each polypeptide coincided, with errors less than 0.0015% in all cases, and the formation of intramolecular bridges between C22-C101 and C168-C247 was verified. […] The biological activity of the polypeptides was evaluated by ELISA for recognition of the VEGF and bFGF antigens, and by their ability to displace VEGF and bFGF binding to their respective VEGFR2 and FGFR1 receptors. […] Similarly, it was shown that the ability to displace the binding of antigens by their receptors was not affected.

[6] = biological target: VEGF (soluble stimulus added to cell cultures); experiment: cell-based or functional assay
[7] = biological target: bFGF (soluble stimulus added to cell cultures); experiment: cell-based or functional assay
[8] = biological target: T2, Recombinant human bFGF; experiment: competition ELISA, coated bFGF, competitor Fc-FGFR1; remark: listed apart in the source
Procedure: (§2) The ability of VHHs to hinder receptors for binding to their ligand was assessed by ELISA, for which 96-well plates (NUNC, USA) were coated with GST-hVEGF or bFGF and blocked as described in the previous section. Serial 1:2 dilutions of the purified VHHs, from […] to […], were added and the plates and incubated for 1 h at 37° C. In this step, some wells were left where only PBS-milk was added. […] After 45 min incubation at 37° C., plates were washed with PBS-0.05% Tween. To detect receptor binding, HRP-conjugated anti-human IgG antibody was added, diluted 1:5000 in PBS-0.5% milk. After incubation for 1 h at 37° C., the plates were washed with PBS-Tween, and TMB was added. The reaction was stopped after 10 min. Wells incubated with the receptors without the addition of the antibody fragments were taken as reference for maximum binding in the absence of competitor. In this assay, in the case of inhibition of the VEGF/VEGFR axis, the CIGB166a antibody fragment was used as a positive control, and an anti-FGF polyclonal antibody was used for the FGF/FGFR axis. The percentage of inhibition of receptor binding to its ligand was calculated as follows: […]

[9] = biological target: T1, GST-hVEGF121; experiment: ELISA, coated GST-hVEGF; remark: listed apart in the source
Procedure: as §1

[10] = biological target: T1, GST-hVEGF121; experiment: competition ELISA, coated GST-hVEGF, competitor Fc-VEGFR2; remark: listed apart in the source
Procedure: as §2
The biological effect of VEGF is a consequence of its binding to two fundamental receptors (VEGFR1 and VEGFR2), so for a polypeptide that binds to VEGF to be effective in the therapeutic setting, it must block these interactions (Shibuya, Cell Structure and Function, 2001: 26: 25-35). The ability of Nb-V1 to compete with receptors 1 and 2 for binding to its ligand (VEGF) was assessed by solid phase ligand competition ELISA, as described above.

T2 sequence (P09038 143-288 limits assumed): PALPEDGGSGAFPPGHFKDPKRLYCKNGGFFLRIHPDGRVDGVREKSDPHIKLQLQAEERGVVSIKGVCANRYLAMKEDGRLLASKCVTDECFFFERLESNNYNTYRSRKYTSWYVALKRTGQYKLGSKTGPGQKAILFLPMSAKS
Sequence of VEGF (soluble stimulus added to cell cultures) (P15692 whole entry): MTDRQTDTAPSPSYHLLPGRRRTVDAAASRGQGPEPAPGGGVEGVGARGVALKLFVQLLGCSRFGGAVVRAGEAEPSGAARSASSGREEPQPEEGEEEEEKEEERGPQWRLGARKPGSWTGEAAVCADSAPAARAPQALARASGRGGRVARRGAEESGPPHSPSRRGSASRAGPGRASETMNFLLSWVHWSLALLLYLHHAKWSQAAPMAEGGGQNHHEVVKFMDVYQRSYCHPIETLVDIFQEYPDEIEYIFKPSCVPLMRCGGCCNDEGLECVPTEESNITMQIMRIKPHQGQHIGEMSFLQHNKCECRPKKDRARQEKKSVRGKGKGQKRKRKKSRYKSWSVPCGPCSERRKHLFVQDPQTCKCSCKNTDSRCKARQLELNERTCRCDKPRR

Binder | IC50 [1] | EC50 [2] | IC50 [3] | EC50 [4] | EC50 [5] | IC50, proliferation of HDMEC cells +VEGF (5 ng/ml) [6] | IC50, proliferation of HDMEC cells +bFGF (10 ng/ml) [7] | IC50 [8] | EC50 [9] | IC50 [10]
Nb-V1\cmycH6 (VHH, Nb-V1 without c-myc tracer peptide and histidine tag) VHH: QVQLVESGGGLVQPGGSLRLSCAASGNSAEDRLYNSYTWFRQAPGQGLEAVAAISSHFSAGLTYYADSVKGRFTISRDNSKNTLYLQMNSLRAEDTAVYYCEITSHASHNDAWSTPRTVWGQGTLVTVSS | 28.6 nM | 4.64 nM |  |  |  |  |  |  |  | 
Nb-FV1\cmycH6 (bispecific antibody, Nb-FV1 without c-myc tracer peptide and histidine tag) QVQLVESGGGLVQPGGSLRLSCAASGTEDGRLLTLGGSWFRQAPGQGLEAVAAIGAGDRGGATYYADSVKGRFTISRDNSKNTLYLQMNSLRAEDTAVYYCTALYERQPQLAATKVARKWGQGTLVTVSSAHHSEDPSSKAPKAPAQVQLVESGGGLVQPGGSLRLSCAASGNSAEDRLYNSYTWFRQAPGQGLEAVAAISSHFSAGLTYYADSVKGRFTISRDNSKNTLYLQMNSLRAEDTAVYYCEITSHASHNDAWSTPRTVWGQGTLVTVSS | 28.6 nM | 4.56 nM | 132 nM | 11.8 nM |  |  |  |  |  | 
Nb-VF3 (bispecific antibody, Bispecific tandem VHH (VEGF and bFGF); with c-myc and histidine tag) QVQLVESGGGLVQPGGSLRLSCAASGNSAEDRLYNSYTWFRQAPGQGLEAVAAISSHFSAGLTYYADSVKGRFTISRDNSKNTLYLQMNSLRAEDTAVYYCEITSHASHNDAWSTPRTVWGQGTLVTVSSAHHSEDPSSKAPKAPAQVQLVESGGGLVQPGGSLRLSCAASGTEDGRLLTLGGSWFRQAPGQGLEAVAAIGAGDRGGATYYADSVKGRFTISRDNSKNTLYLQMNSLRAEDTAVYYCTALYERQPQLAATKVARKWGQGTLVTVSSAAAGSEQKLISEEDLNSHHHHHH |  |  |  |  | 11.3 nM | 132 nM | 120 nM | 136 nM | 4.49 nM | 28.5 nM
Nb-F3\cmycH6 (VHH, Nb-F3 without c-myc tracer peptide and histidine tag) VHH: QVQLVESGGGLVQPGGSLRLSCAASGTEDGRLLTLGGSWFRQAPGQGLEAVAAIGAGDRGGATYYADSVKGRFTISRDNSKNTLYLQMNSLRAEDTAVYYCTALYERQPQLAATKVARKWGQGTLVTVSS |  |  | 134 nM | 11.5 nM |  |  |  |  |  | 
